This note sets out measurements from PMC5883314, “Soluble expression of an amebic cysteine protease in the cytoplasm of Escherichia coli SHuffle Express cells and purification of active enzyme” (BMC Biotechnology, 2018).

Data set [1] deals with T1, EhCP1 (Cysteine Protease 1 of Entamoeba histolytica) (Entamoeba histolytica, UniProt Q01957).
T1 construct: gene CP1; pro-mature polypeptide (Ile14 to Leu315), N-terminal hexahistidine tag
Put plainly: inhibition of purified recombinant enzyme, hydrolysis of Z-Arg-Arg-pNA and Z-Arg-Arg-AMC. The class given is biochemical.

For data set [2], the system named is Cc1cc(=O)oc2cc(NC(=O)[C@H](CCCNC(=N)N)NC(=O)[C@H](CCCNC(=N)N)NC(=O)OCc3ccccc3)ccc12. The data set can be described thus: purified protein.
For data set [3], the system named is N=C(N)NCCC[C@H](NC(=O)OCc1ccccc1)C(=O)N[C@@H](CCCNC(=N)N)C(=O)Nc1ccc([N+](=O)[O-])cc1. The data set can be described thus: purified protein.

T1 sequence (Q01957 14-315): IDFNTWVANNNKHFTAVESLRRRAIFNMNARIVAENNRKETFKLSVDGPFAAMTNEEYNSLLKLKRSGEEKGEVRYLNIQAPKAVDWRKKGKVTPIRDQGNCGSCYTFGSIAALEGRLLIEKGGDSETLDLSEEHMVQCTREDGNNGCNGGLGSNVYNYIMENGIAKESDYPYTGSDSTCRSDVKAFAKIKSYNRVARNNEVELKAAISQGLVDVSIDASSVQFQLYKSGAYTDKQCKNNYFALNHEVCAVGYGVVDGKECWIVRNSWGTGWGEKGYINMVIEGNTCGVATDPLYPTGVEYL

What is called IC50 is the point on the concentration scale where inhibition reaches its midpoint. For `CC(C)C[C@H](NC(=O)[C@H]1O[C@@H]1C(=O)O)C(=O)NCCCCN=C(N)N` [E-64, L-trans-3-carboxyoxiran-2-carbonyl-L-leucylagmatine], the IC50 in data set [1] was 1000 nM.
A word on the Km: it is the substrate concentration at which the rate is half of its maximum. Take “EhCP1 (Cysteine Protease 1 of Entamoeba histolytica) (Entamoeba histolytica HM-1:IMSS)”: the Km in data set [2] turned out to be 6.7 µM; in data set [3] it was 57.1 µM.
